Source: US4508828A, “Bioassay of parathyroid hormone” (Immuno Nuclear Corporation, priority 1983, dated 1985)
“Also recorded” adds a separate entry of the source.

T1: adenylate cyclase-coupled PTH receptors (Rattus norvegicus, UniProt P25961)
T1 construct: 96-well tissue culture plate containing the rat osteogenic sarcoma cells; endogenous in cells; host or cells: rat osteogenic sarcoma cells (obtained by the methods of Partridge et al. 1981 and Majeska et al. 1980)
T1 sequence (P25961 27-591): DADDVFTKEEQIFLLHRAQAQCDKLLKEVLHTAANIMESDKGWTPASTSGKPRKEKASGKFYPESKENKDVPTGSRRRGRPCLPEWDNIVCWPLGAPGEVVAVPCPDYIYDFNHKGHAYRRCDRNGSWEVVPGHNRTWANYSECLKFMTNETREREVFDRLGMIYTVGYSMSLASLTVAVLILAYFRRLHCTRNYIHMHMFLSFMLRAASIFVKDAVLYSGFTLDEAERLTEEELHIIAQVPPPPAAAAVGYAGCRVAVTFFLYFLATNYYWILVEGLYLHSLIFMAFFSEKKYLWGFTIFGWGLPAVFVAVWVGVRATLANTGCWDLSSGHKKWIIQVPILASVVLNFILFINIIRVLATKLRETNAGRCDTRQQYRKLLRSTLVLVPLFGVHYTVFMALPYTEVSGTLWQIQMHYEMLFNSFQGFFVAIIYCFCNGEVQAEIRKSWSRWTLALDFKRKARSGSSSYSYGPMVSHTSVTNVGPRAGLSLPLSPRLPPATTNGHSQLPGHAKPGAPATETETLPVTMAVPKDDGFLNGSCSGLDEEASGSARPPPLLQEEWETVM


Biological target: T1, adenylate cyclase-coupled PTH receptors
Assay: PTH bioassay: cAMP generation in rat osteogenic sarcoma cell culture, cAMP by radioimmunoassay
Type: cell-based
Details: for bioactivity (cAMP generation): standards of the peptide alone, FIG. 3; for cell culture response, human versus bovine bioactive PTH: hPTH^1-34 compared with bPTH^1-34, FIG. 2; for suppression of cAMP generation by serum in the bioassay medium: FIG. 5
Description: Rat osteogenic sarcoma cells are maintained in culture in Dulbecco's modified Eagle medium ("DMEM"), disclosed in R. Dulbecco, VIROLOGY, 8: 396 (1959), J. Smith, et al., VIROLOGY, 12: 185-196 (1960), Tissue Culture Standards Committee, IN VITRO, 6(2): 93 and available from Gibco, Grand Island, N.Y., containing 1% fetal calf serum, 9% heat-inactivated horse serum, 100 units/ml of penecilin G and 100 μg/ml streptomycin sulfate in sodium sulfate and normal saline solution, available as a concentrate from Gibco, supra. Cells are maintained in this medium in a humidified atmosphere of 5% carbon dioxide and 95% air at 37° C. This rat osteogenic sarcoma cell culture can be obtained according to the methods set forth in N. Partridge, et al., "Functional Properties Of Hormonally Responsive Cultured Normal And Malignant Rat Ostoblastic Cells," ENDOCRINOLOGY, 108: 213-219 (1981), which is incorporated in its entirety herein by reference thereto. This method of obtaining the cell culture is further described in R. Majeska, et al., "Parathyroid Hormone--Responsive Clonal Cell Lines From Rat Osteosarcoma," ENDOCRINOLOGY, 107: 1494-1503 (1980) and R. Majeska, "Maintenance Of Parathyroid Hormone Response in Clonal Rat Osteosarcoma Cell Lines," EXP. CELL RES., 111: 465 (1978), also incorporated in their entirety herein by reference thereto.
Cells are subcultured from confluent monolayers by removing the culture medium, rinsing the cell layer with Dulbecco's phosphate buffered saline, 0.2 g/l KCl, 0.2 g/l KH2 PO4, […], and Na2 HPO4.7H2 O and available from Gibco, supra, and adding trypsin/EDTA, 0.5 g trypsin (1:250) and 0.2 g EDTA-4Na/l Hank's balanced salt solution without CaCl2, MGCL2.6H2 O and MgSO4.7H2 O and available from Gibco, supra, to cover the cell layer. After 1 minute at 20°-25° C., the trypsin/EDTA is removed and the cells are incubated for 2-3 minutes at 37° C. The cells are resuspended in DMEM and one-fifth to one-tenth of the cells are added to a culture flask of equal size.
For use in the bioassay of PTH, the above cell suspension is diluted with 4 volumes of DMEM and 0.1 ml of the suspension is pipetted into each well of a 96-well tissue culture plate available from Becton Dickinson Labware, Oxnard, Calif. The cells are cultured in the same atmosphere as above and are ready for use in the bioassay in 24-28 hours.
15. The dried eluates are dissolved in 0.6 ml of bioassay medium at 20°-25° C., said bioassay medium consisting of 0.1% glucose, 1% BSA, 1 mM methylisobutylxanthine, and 0.005% phenol red in Dulbecco's phosphate buffer saline (pH 7.3 or within range of about 7-7.5).
To perform the bioassay of PTH, the medium is removed from all wells of the 96-well tissue culture plate containing the rat osteogenic sarcoma cells by inversion of the plate and blotting of any remaining drops of medium. The plate is replaced upright and 100 μl of the redissolved N-terminal affinity column eluates are added to each of 4 wells of the plate. The plate is incubated at 20°-25° C. for 30 minutes. At this time, the plate is inverted and blotted to remove all remaining medium, replaced upright and placed on ice.
Each well is washed 3 times by addition of 300 μl of ice cold 0.85% saline followed by inversion and […]. After the third saline wash, 200 μl of ice cold 95% ethyl alcohol containing 0.02M HCl (EtOH/HCl) is added to each well and the plate is incubated at -20° C. for 16-24 hours in order to extract the cAMP from the cells. At the end of this extraction, the EtOH/HCl is removed from each well with a pipet and rinsed with an additional 200 μl of EtOH/HCl. The rinse is combined with the original extract and the solution is dried. An appropriate device for drying the EtOH/HCl samples is a Speed-Vac Concentrator/Evaporator, available from Savant Instruments, Inc., Hicksville, N.Y. The amount of cAMP extracted from the cell layer in each well is quantitated using a radioimmunoassay for cAMP. […]

| Molecule | bioactivity (cAMP generation) | cell culture response, human versus bovine bioactive PTH | other results |
| --- | --- | --- | --- |
| (norleucine^8,18)bPTH^3-34 amide | virtual absence of bioactivity |  | antagonism of bPTH^1-84 (inhibition of cAMP generation) (bPTH^1-84 added to the standards, FIG. 4): very strong antagonist; bioactivity (cAMP generation) (listed as hPTH^3-34 amide): not bioactive |
| bPTH^1-34: bovine parathyroid hormone fragment 1-34 |  | respond similarly; also recorded: very close correlation of response |  |
| hPTH^1-34: human parathyroid hormone fragment 1-34, available from Peninsula Laboratories |  | respond similarly; also recorded: very close correlation of response |  |
| hPTH^37-84: human parathyroid hormone fragment 37-84 (LGAPLAPRDAGSQRPRKKEDNVLVESHEKSLGEADKADVNVLTKAKSQ; Parathyroid hormone; UniProt P01270 68-115, looked up, fragment) | not bioactive; also recorded: virtual absence of bioactivity |  |  |
| hPTH^65-84: human parathyroid hormone fragment 65-84 (KSLGEADKADVNVLTKAKSQ; Parathyroid hormone; UniProt P01270 96-115, looked up, fragment) | not bioactive; also recorded: virtual absence of bioactivity |  |  |
| PTH^1-84: parathyroid hormone 1-84 standards of the bioassay (bovine PTH 1-84 standard) (protein, UniProt P01268 32-115, looked up, Parathyroid hormone) Parathyroid hormone: AVSEIQFMHNLGKHLSSMERVEWLRKKLQDVHNFVALGASIAYRDGSSQRPRKKEDNVLVESHQKSLGEADKADVDVLIKAKPQ |  |  | suppression of cAMP generation by serum in the bioassay medium (10% serum (fetal calf serum) in bioassay medium): 50 fold; suppression of cAMP generation by serum in the bioassay medium (50% serum (human serum) in bioassay medium): 100 fold |
